From patent US20110144007A1 (IPSEN PHARMA S A S, published 2011)
Non-standard residues stand in square brackets, D forms with d. No end group written: not given here. *: point of attachment. Psu = N-propylsuccinimide on Cys S (Cys alkylated with N-propylmaleimide), CCCN1C(=O)CC(*)C1=O; Myristoyl = CCCCCCCCCCCCCC(=O)*; Ac6c = NC1(C(=O)O)CCCCC1; Nle = CCCC[C@H](N)C(=O)O; Orn = NCCC[C@H](N)C(=O)O; Ac5c = NC1(C(=O)O)CCCC1; Aib = CC(C)(N)C(=O)O

T1: human recombinant GIP receptor (human, UniProt P48546 22-466)
T1 construct: whole, on cells; Assayed as washed membrane preparations of CHO-K1 clonal cells expressing the receptor; also called hGIP receptor
T1 sequence (looked up): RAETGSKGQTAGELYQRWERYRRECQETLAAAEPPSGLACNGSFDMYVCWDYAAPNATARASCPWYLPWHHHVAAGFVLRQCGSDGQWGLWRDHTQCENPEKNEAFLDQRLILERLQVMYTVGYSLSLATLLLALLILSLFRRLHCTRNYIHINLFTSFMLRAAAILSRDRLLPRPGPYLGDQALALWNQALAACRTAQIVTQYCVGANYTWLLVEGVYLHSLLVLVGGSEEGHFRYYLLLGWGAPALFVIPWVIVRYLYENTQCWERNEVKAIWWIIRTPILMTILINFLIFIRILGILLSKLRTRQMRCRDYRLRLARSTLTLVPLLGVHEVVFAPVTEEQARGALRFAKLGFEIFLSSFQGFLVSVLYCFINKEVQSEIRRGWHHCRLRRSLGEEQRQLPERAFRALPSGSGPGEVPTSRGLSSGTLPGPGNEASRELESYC


Target: T1, human recombinant GIP receptor
Test: displacement of [125I]GIP from membranes of CHO-K1 cells expressing human recombinant GIP receptor

Binder | Ki [nM]
YAEGTFISDYXIAMDKIHQQDFVNWLLAQKH (A5c at 11; C-terminal amide, Synthetic truncated analogue of human GIP with His at position 31) [(A5c^11, His^31)hGIP(1-31)-NH2] | 0.44
YAEGTF[Ac6c]SDYSIAMDKIHQQDFVNWLLAQKGKKNDWKHNI[Ac6c]Q-OH (Synthetic analogue of human GIP) [(A6c^7, 41)hGIP(1-42)-OH] | 8.79
YAEGTFISDYSI[Aib][Nle]DKIHQQDFVNWLLAQKGKKNDWKHN[Ac5c]TQ-OH (Synthetic analogue of human GIP) [(Aib^13, Nle^14, A5c^40)hGIP(1-42)-OH] | 0.23
YAEGTFISDYXIAMDKIHQQDFVNWLLAQKGKKNDWKHNITQK (A5c at 11; Lys(N-C(O)-(CH2)10-CH3) at 43; C-terminal free acid, Synthetic acylated analogue of human GIP) [[A5c^11, Lys^43(N-C(O)-(CH2)10-CH3)]hGIP(1-43)-OH] | 0.83
YAEGTFISDYSIXMDKIHQQDFVNWLLAQKGKKNDWKHNITQD (Aib (alpha-aminoisobutyric acid) at 13; C-terminal amide, Synthetic analogue of human GIP with an added Asp at position 43) [(Aib^13, Asp^43)hGIP(1-43)-NH2] | 0.6
YAEGTFISDYXIAXDKIHQQDFVNWLLAQKGKKNDWKHNITQH (A5c at 11 and 14; C-terminal free acid, Synthetic analogue of human GIP with an added His at position 43) [(A5c^11, 14, His^43)hGIP(1-43)-OH] | 0.59
YAEGTFISDYXIAMDKIHQQDFVNWLLAQKGKXNDWKHNITQH (A5c at 11; Orn(N-C(O)-(CH2)14-CH3) at 33; C-terminal free acid, Synthetic acylated analogue of human GIP) [[A5c^11, Orn^33(N-C(O)-(CH2)14-CH3), His^43]hGIP(1-43)-OH] | 26.4
YAEGTFISDYXIAMDKIHQQDFVNWLLAQKGKKNDWKHNIXQC (A5c at 11 and 41; Cys(succinimide-N-30K PEG) at 43; C-terminal amide, Synthetic PEGylated analogue of human GIP) [[A5c^11,41, Cys^43(succinimide-N-30K PEG)]hGIP(1-43)-NH2] | 0.69
YAEGTFISDYXIAMDKIHQQDFVNWLLAQKGXKNDWKHNITQH (A5c at 11; Orn(N-C(O)-(CH2)14-CH3) at 32; C-terminal free acid, Synthetic acylated analogue of human GIP) [[A5c^11, Orn^32(N-C(O)-(CH2)14-CH3), His^43]hGIP(1-43)-OH] | 41.6
YAEGTFISDYXIAXDKIHQQDFVNWLLAQKGKKNDWKHNITQH (A5c at 11; Nle at 14; C-terminal free acid, Synthetic analogue of human GIP with an added His at position 43) [(A5c^11, Nle^14, His^43)hGIP(1-43)-OH] | 0.72
YAEGTFISDYXIAMDKIHQQDFVNWLLAQKGXKNDWKHNITQH (A5c at 11; Orn(N-C(O)-(CH2)10-CH3) at 32; C-terminal free acid, Synthetic acylated analogue of human GIP with an added His at position 43) [[A5c^11, Orn^32(N-C(O)-(CH2)10-CH3), His^43]hGIP(1-43)-OH] | 5.3
YAEGTFISDYXIAMDKIHQQDFVNWLLAQKGKKNDWKHNITQK (A5c at 11; Lys(N-C(O)-(CH2)14-CH3) at 43; C-terminal free acid, Synthetic acylated analogue of human GIP) [[A5c^11, Lys^43(N-C(O)-(CH2)14-CH3)]hGIP(1-43)-OH] | 1.25
YAEGTFISDYXIAMDKIHQQDFVNWLLAQKGKXNDWKHNITQH (A5c at 11; Orn(N-C(O)-(CH2)10-CH3) at 33; C-terminal free acid, Synthetic acylated analogue of human GIP with an added His at position 43) [[A5c^11, Orn^33(N-C(O)-(CH2)10-CH3), His^43]hGIP(1-43)-OH] | 9.1
YAEGTFISDYXIAMDKIHQQDFVNWLLAQKGKKNDWKHNIXQC (A5c at 11 and 41; Cys(succinimide-N-20K PEG) at 43; C-terminal amide, Synthetic PEGylated analogue of human GIP) [[A5c^11,41, Cys^43(succinimide-N-20K PEG)]hGIP(1-43)-NH2] | 0.7
YAEGTFISDYXIAMDKIHQQDFVNWLLAQKGKKNDWKHNIXQC (A5c at 11 and 41; C-terminal amide, Synthetic analogue of human GIP with an added Cys at position 43) [(A5c^11, 41, Cys^43)hGIP(1-43)-NH2] | 0.51
YAEGTFISDYXIAMDKIHQQDFVNWLLAQKGKKNDWKHNITQX (A5c at 11; Ado (12-aminododecanoic acid) at 43; C-terminal free acid, Synthetic analogue of human GIP) [(A5c^11, Ado^43)hGIP(1-43)-OH] | 31.6
YAEGTFISDYXIAMDKIHQQDFVNWLLAQKGKKNDWKHNITQN (A5c at 11; C-terminal free acid, Synthetic analogue of human GIP with an added Asn at position 43) [(A5c^11, Asn^43)hGIP(1-43)-OH] | 0.21
YAEGTFISDYSIXMDKIHQQDFVNWLLAQKGKKNDWKHNITQW (Aib at 13; C-terminal free acid, Synthetic analogue of human GIP with an added Trp at position 43) [(Aib^13, Trp^43)hGIP(1-43)-OH] | 2.76

Binder | Ki [nM]
YAEGTFISDYXIAMDKIHQQDFVNWLLAQKGKKNDWKHNITQH (A5c at 11; C-terminal free acid, Synthetic analogue of human GIP with an added His at position 43) [(A5c^11, His^43)hGIP(1-43)-OH] | 0.54
YAEGTFISDYXIAMDKIHQQDFVNWLLAQKGKKNDWKHNITQT (A5c at 11; C-terminal free acid, Synthetic analogue of human GIP with an added Thr at position 43) [(A5c^11, Thr^43)hGIP(1-43)-OH] | 3.13
YAEGTFISDYXIAMDKIHQQDFVNWLLAQKGKKNDWKHNITQA (A5c at 11; C-terminal free acid, Synthetic analogue of human GIP with an added Ala at position 43) [(A5c^11, Ala^43)hGIP(1-43)-OH] | 3.43
YAEGTF[Ac6c]SDYSIAMDKIHQQDFVNWLLAQKGKKNDWKHNITC(Psu)-OH (Synthetic analogue of human GIP) [[A6c^7, Cys(Psu)^42]hGIP(1-42)-OH] | 30.4
YAEGTF[Ac6c]SDYSIA[Nle]DKIHQQDFVNWLLAQKGKKNDWKHNI[Ac6c]Q-OH (Synthetic analogue of human GIP) [(A6c^7, 41, Nle^14)hGIP(1-42)-OH] | 26.1
YAEGTFISDYSI[Aib][Nle]DKIHQQDFVNWLLAQKGKKNDWKHNITQF-OH (Synthetic analogue of human GIP with an added Phe at position 43) [(Aib^13, Nle^14, Phe^43)hGIP(1-43)-OH] | 3.15
YAEGTFISDYXIAXDKIHQQDFVNWLLAQKGKKNDWKHNIXQ (A6c (1-amino-1-cyclohexanecarboxylic acid) at 11, 14 and 41; C-terminal free acid, Synthetic analogue of human GIP) [(A6c^11, 14, 41)hGIP(1-42)-OH] | 4.72
YAEGTFISDYXIAXDKIHQQDFVNWLLAQKGKKNDWKHNXTQ (A6c at 11, 14 and 40; C-terminal free acid, Synthetic analogue of human GIP) [(A6c^11, 14, 40)hGIP(1-42)-OH] | 1.3
YAEGTFISDYXIAMDKIHQQDFVNWLLAQKGKKNDWKHNXTQ (A5c at 11 and 40; C-terminal free acid, Synthetic analogue of human GIP) [(A5c^11, 40)hGIP(1-42)-OH] | 0.62
YAEGTFISDYXIAMDKIHQQDFVNWLLAQKGKKNDWKHNIXQ (A5c (1-amino-1-cyclopentanecarboxylic acid) at 11 and 41; C-terminal free acid, Synthetic analogue of human GIP) [(A5c^11, 41)hGIP(1-42)-OH] | 0.12
YAEGTFISDYSIXMDKIHQQDFVNWLLAQKGKKNDWKHNXTQ (Aib at 13; A5c at 40; C-terminal free acid, Synthetic analogue of human GIP) [(Aib^13, A5c^40)hGIP(1-42)-OH] | 5.74
YAEGTFISDYXIAMDKIHQQDFVNWLLAQKGCKNDWKHNIXQ (A5c at 11 and 41; C-terminal amide, Synthetic analogue of human GIP with Cys at position 32) [(A5c^11, 41, Cys^32)hGIP(1-42)-NH2] | 0.9
YAEGTFISDYXIAMDKIHQQDFVNWLLAQKGKCNDWKHNIXQ (A5c at 11 and 41; C-terminal amide, Synthetic analogue of human GIP with Cys at position 33) [(A5c^11, 41, Cys^33)hGIP(1-42)-NH2] | 1.05
YAEGTFISDYXIAMDKIHQQDFVNWLLAQKGCKNDWKHNIXQ (A5c at 11 and 41; Cys(succinimide-N-20K PEG) at 32; C-terminal amide, Synthetic PEGylated analogue of human GIP) [[A5c^11,41, Cys^32(succinimide-N-20K PEG)]hGIP(1-42)-NH2] | 0.7
YAEGTFISDYXIAXDKIHQQDFVNWLLAQK (A5c at 11 and 14; C-terminal amide, Synthetic truncated analogue of human GIP) [(A5c^11, 14)hGIP(1-30)-NH2] | 0.78
YAEGTF[Ac6c]SDYSIAMDKIHQQDFVNWLLAQK[Orn](Myristoyl)KKNDWKHNITQ-OH (Synthetic analogue of human GIP) [[A6c^7, Orn^31(N-C(O)-(CH2)12-CH3)]hGIP(1-42)-OH] | 18.1
YAEGTF[Ac6c]SDYSIAMDKIHQQDFVNWLLAQKGKKN[Orn](Myristoyl)WKHNITQ-OH (Synthetic analogue of human GIP) [[A6c^7, Orn^35(N-C(O)-(CH2)12-CH3)]hGIP(1-42)-OH] | 10.3
YAEGTFISDYXIAMDKIHQQDFVNWLLAQK (A5c at 11; C-terminal amide, Synthetic truncated analogue of human GIP) [(A5c^11)hGIP(1-30)-NH2] | 0.82
